Tested on: MS2 coat protein
Experiment: apparent KD of MS2 coat protein; designed switch direction (-1 OFF switch, 1 ON switch): -1; higher = weaker reporter binding
Procedure, shortened: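 Transcription of designed RNA switches on Illumina chips was done by stalled E. coli RNA polymerase. SNAP-549-labelled MS2 coat protein was then titrated in doubling steps from 0.7 or 1.5 nM to 3 µM, with steps of 0.8–1.5 h at the lowest and 10–20 min at the highest concentration. The per-design median over clusters of curve-fitted normalised fluorescence is reported as apparent KD.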

[1] = input ligand: microRNA oligo, concentration not stated
[2] = Eterna round: R95, input ligand: microRNA oligo, concentration not stated
[3] = Eterna round: R95, input ligand: FMN 200 uM
[4] = Eterna round: R95, input ligand: none

| Sequence | apparent KD of MS2 coat protein (input ligand: FMN 200 uM) | apparent KD of MS2 coat protein (input ligand: none) | apparent KD of MS2 coat protein [1] | apparent KD of MS2 coat protein [2] | apparent KD of MS2 coat protein [3] | apparent KD of MS2 coat protein [4] |
| --- | --- | --- | --- | --- | --- | --- |
| UCGCAGUUAGGAUAUACAUGAGGAUCACCCAUGUGGCUCCGGACCGGCAACGAAUCACGUAGAAGGGACUGCAG [Eternabot (Original) Solution 24] (Eterna round: R97, puzzle: Exclusion 3) | 20.4 nM | 16.8 nM | – | – | – | – |
| UCGCGCCAAGGAUAUACAUGAGGAUCACCCAUGUUGAAAGAAAAGUUGUCCGGUCCCAGUAGAAGGUGGUUCCC [Eternabot (L2) Solution 90] (Eterna round: R97, puzzle: Exclusion 3) | 23.5 nM | 58.4 nM | – | – | – | – |
| UCGCUCCGUGUAGGAUAUCGCCGUUCUAUUCGGCGAGAAGGACAUGAGGAUCACCCAUGUAUGUUAUUAUCACGCGUGGCGCGC [Design 56] (Eterna round: R96, puzzle: Exclusion NG 1) | 18.8 nM | 15.4 nM | 8.79 nM | – | – | – |
| UCGCUCCGUGUAGGAUAUCGUUGUACUCUGCGGCGAGAAGGACAUGAGGAUCACCCAUGUAUGUUAUUAUCACGCGUGGCGCAA [Design 68] (Eterna round: R96, puzzle: Exclusion NG 1) | 21.5 nM | 19 nM | 17 nM | – | – | – |
| UCGCUGCGAGGAUAUACAUGAGGAUCACCCAUGUACGGGUCCGGGUCUUCGUCUAUUGGUAGAAGGCGCAGUGA [JL Laongeedie mod 8] (puzzle: Exclusion 3) | – | – | – | 43.6 nM | – | – |
| UCGCUGCGAGGAUAUACGUUCGCGCGCUUUCGUUUGCGCGUACAUGAGGAUCACCCAUGUAGAAGGCGCGCUGC [Apr-15 SS2-7] (puzzle: Exclusion 2) | – | – | – | 13.7 nM | – | – |
| UCGGCGCGAGGAUAUGCGGUUUGUGCUUUGGGCCCUGGCGUACAUGAGGAUCACCCAUGUAGAAGGCGUGUUGC [Apr-15 SS2-49] (puzzle: Exclusion 2) | – | – | – | 17.9 nM | – | – |
| UCGUGGUAAAUCAGAAGUUUCCUGAGCGGAGGAACUUUGACAUGAGGAUCACCCAUGUUGCUUUUUGCUCAUCUUAA [JR_SV3TOV2_Sub043] (puzzle: Sensor v3, turn-off variant 2) | – | – | – | 41.8 nM | 15.3 nM | 12.9 nM |
| UCGUUCCGUGUAGGAUAUUGGCCUUCUCUGGGCCGAGAAGGACAUGAGGAUCACCCAUGUAUGUUAUUAUCACGCGUGGCGCAU [Design 84] (Eterna round: R96, puzzle: Exclusion NG 1) | 181 nM | 25.1 nM | 22.9 nM | – | – | – |
| UCGUUCCGUGUAGGAUAUUGGUCUCCCUCGGGCCGAGAAGGACAUGAGGAUCACCCAUGUAUGUUAUUAUCGCGCGUGGCGCAU [Design 90] (Eterna round: R96, puzzle: Exclusion NG 1) | 29.5 nM | 24.1 nM | 17.8 nM | – | – | – |
| UCUAGCUUUUUGCGUCAAGCAUUGAAGUCUGUGAUCGUAACAUGAGGAUCACCCAUGUAAGUUUUAUGUCGUCUUGU [JR_SV3TOV2_Sub098] (puzzle: Sensor v3, turn-off variant 2) | – | – | – | 41.4 nM | 47.8 nM | 63.3 nM |
| UCUCACUCAGGAUAUCUUCCGCAUGACAUGAGGAUCACCCAUGUGUGCAUGCCCUUUGGUAGAGAAGGGAGUGAGA [eternacac ex5r4 #5] (Eterna round: R97, puzzle: Exclusion 5) | 22.7 nM | 24.4 nM | – | – | – | – |
| UCUCGCAGGCAAGGAUAUCCUACAUUGUUCUGGCCCGGGCAUGCUACAUGAGGAUCACCCAUGUGGGAGAAGGUGCGCCACGGC [Design 32] (Eterna round: R96, puzzle: Exclusion NG 2) | 47.9 nM | 35.4 nM | 36 nM | – | – | – |
| UCUCGCUGGCGAGGAUAUCCUGUGCGGUUCCGGCUCGUGUCUGUUACAUGAGGAUCACCCAUGUGGGAGAAGGUGUCUGUGGCC [Design 96] (Eterna round: R96, puzzle: Exclusion NG 2) | 16.7 nM | 18.8 nM | 15.4 nM | – | – | – |
| UCUGCUUUAGGAUAUACGAGAUCCUGCGAUGUACUCUUCGGACAUGAGGAUCACCCAUGUAGAAGGAAAGCAGG [Eternabot (L2) Solution 20] (Eterna round: R97, puzzle: Exclusion 2) | 96.4 nM | 12.2 nM | – | – | – | – |
| UCUGUUUUGCGAGGAUAUCGACCAUUCCUCUUAACAUGAGGAUCACCCAUGUGCUAAUCCUACAACGAGAAGGCGCUCAUACUC [JR_ExcNG2_Sub066] (Eterna round: R96, puzzle: Exclusion NG 2) | – | – | 195 nM | – | – | – |
| UCUUACUGAGGAUAUACAUAGAUUUACAUGAGGAUCACCCAUGUUCCUCUAUGUAUAAAUGUAGAAGGCAGAAGAU [Mat - Exclusion 5 - JL Mod - D54] (Eterna round: R97, puzzle: Exclusion 5) | 72.9 nM | 18 nM | – | – | – | – |

| Sequence | apparent KD of MS2 coat protein (input ligand: FMN 200 uM) | apparent KD of MS2 coat protein (input ligand: none) | apparent KD of MS2 coat protein [1] | apparent KD of MS2 coat protein [2] | apparent KD of MS2 coat protein [3] | apparent KD of MS2 coat protein [4] |
| --- | --- | --- | --- | --- | --- | --- |
| UCUUGUUGUCCUUGAUAAUACAUGAGGAUCACCCAUGUUAUUUUGAUUAUGAUGUGUAAGUUUGUUGCUCGUUUUAU [JR_STOV1_Sub069] (Eterna round: R97, puzzle: Sensor, turn-off variant 1) | 27.7 nM | 30.9 nM | – | – | – | – |
| UCUUGUUGUCCUUGAUUUUACAUGAGGAUCACCCAUGUUAUUUUGAUUAUGAUGUGUAAGUUUGUUGCUCGUUUUAU [JR_STOV1_Sub068] (Eterna round: R97, puzzle: Sensor, turn-off variant 1) | 49.8 nM | 54.3 nM | – | – | – | – |
| UGAAACCUAGGAUAUACAUGAGGAUCACCCAUGUAAUGUAGUAUAGUAUAUGUAAGAUGUAGAAGGAGGAAUGU [LRO-Excl05-27-Smart Aleck] (Eterna round: R97, puzzle: Exclusion 3) | 30.9 nM | 34.9 nM | – | – | – | – |
| UGAAUACGUGUUAGGAUAUGGUUUGGUAUUUUAGAUUAGAAGGGACAUGAGGAUCACCCAUGUAAUUGAUAGGU [-13, -10.4 kcal, 30% A] (Eterna round: R97, puzzle: Brourd's mod of Exclusion 4) | 38 nM | 41.9 nM | – | – | – | – |
| UGAGAGAGUAUAGGAUAUUAGAGGAGAAUGGUGAUAGAGACAUGAGGAUCACCCAUGUGAGGAGAUAAGAAGGGUAAGAACUCA [AK ExNG2-V2-4] (Eterna round: R96, puzzle: Exclusion NG 2) | 452 nM | 435 nM | 292 nM | – | – | – |
| UGAGAGCAAGGAUAUACGUUGGUGUAUACCCGGGUAUGUAUACAUGAGGAUCACCCAUGUAGAAGGUGCACAAA [EX2 B.1] (Eterna round: R97, puzzle: Exclusion 2) | 120 nM | 36 nM | – | – | – | – |
| UGAGAGUGAGGAUAUACGUCGCUGGUCCGGAUGGACGCAUGACAUGAGGAUCACCCAUGUAGAAGGCAUUUCCC [Enxela Mod 6 - Jieux - Exclusion 2] (Eterna round: R97, puzzle: Exclusion 2) | 75.2 nM | 26.9 nM | – | – | – | – |
| UGAGCAACAGGAUAUAUAUGGCGACCGUGAGGUCGAAGGUUACAUGAGGAUCACCCAUGUAGAAGGGUUGUUCU [Mat - Exclusion 2 - JL Mod - D16] (Eterna round: R97, puzzle: Exclusion 2) | 279 nM | 102 nM | – | – | – | – |
| UGAGCUUGAGGAUAUACAAGGCGACCGUGAGGUCGAGGUUUACAUGAGGAUCACCCAUGUAGAAGGCAAGUUCU [Mat - Exclusion 2 - JL Mod - D8] (Eterna round: R97, puzzle: Exclusion 2) | 41.9 nM | 18.5 nM | – | – | – | – |
| UGAGUGUGAGGAUAUGGUAAAGAUAAGAUGAUGAAAGAACUCCAGAAGGCACAUGAGGAUCACCCAUGUAGAUG [JL-ex4-2.12 Jieux mod] (puzzle: Exclusion 4) | – | – | – | 35.4 nM | 81.1 nM | 35.7 nM |
| UGAUAGAGCCUAGGAUAUUCGGAUCUACUACAAGGAGAAGGAGGUAGUCGGUGACGAACAUGAGGAUCACCCAUGUCGUCCUUC [Eternabot solution 37] (Eterna round: R96, puzzle: Exclusion NG 1) | – | – | 61.7 nM | – | – | – |
| UGAUCACAUGAGGAUCACCCAUGUCAGGAUAUCUACAUUGAAGCCUCGGCUUCAAUGUAGAGAAGGGACAUAAU [E1/3-B2] (Eterna round: R97, puzzle: Exclusion 1) | 33.2 nM | 71.1 nM | – | – | – | – |
| UGAUCACAUGAGGAUCACCCAUGUCAGGAUAUCUACAUUGAAGCUGCGGCUUCAAUGUAGAGAAGGGACAUAAU [E1/3-B3] (Eterna round: R97, puzzle: Exclusion 1) | 117 nM | 355 nM | – | – | – | – |
| UGAUCACAUGAGGAUCACCCAUGUCAGGAUAUCUACAUUGAAGCUUCGGCUUCAAUGUAGAGAAGGGACAUAAU [E1/3-B1] (Eterna round: R97, puzzle: Exclusion 1) | 115 nM | 175 nM | – | – | – | – |
| UGAUCACAUGAGGAUCACCCAUGUCAGGAUAUCUACAUUGAAGCUUCGGCUUCAAUGUAGAGAAGGGAUAUAAU [E1/5-B1] (Eterna round: R97, puzzle: Exclusion 1) | 203 nM | 82.8 nM | – | – | – | – |
| UGAUCAGACCGAGGAUAUAUAUGGAGGACGCACGUGAGUGCGUCCACUACAUGAGGAUCACCCAUGUAGAAGGCGGUCUGAUCU [JL ENG2 1.98] (Eterna round: R96, puzzle: Exclusion NG 2) | 26.2 nM | 13.1 nM | 9.6 nM | – | – | – |
| UGAUCUAGCGGAGGAUAUACAUGAGGAUCACCCAUGUAAAUCGCUGAACCGUAGUUCAGCAUCAUGUAGAAGGCCGCUAGAUCU [MOD2 ENG2 3.62 by JL] (Eterna round: R96, puzzle: Exclusion NG 2) | 473 nM | 70.4 nM | 55.6 nM | – | – | – |

From the supplement of paper PMC9170038
